Reference: publication PMC5201011 (2016)

B1: GST–Tks5-PX [not stated] / FLAG–Rab40b [not stated] (parent complex)
chain 1: YCVQDATVVDVEKRRNPSKHYVYIINVTWSDSTSQTIYRRYSKFFDLQMQLLDKFPIEGGQKDPKQRIIPFLPGKILFRRSHIRDVAVKRLKPIDEYCRALVRLPPHISQCDEVFRFFEARPEDV
chain 2: MSALGSPVRAYDFLLKFLLVGDSDVGKGEILASLQDGAAESPYGHPAGIDYKTTTILLDGRRVKLQLWDTSGQGRFCTIFRSYSRGAQGVILVYDIANRWSFDGIDRWIKEIDEHAPGVPKILVGNRLHLAFKRQVPTEQAQAYAERLGVTFFEVSPLCNFNITESFTELARIVLLRHGMDRLWRPSKVLSLQDLCCRAVVSCTPVHLVDKLPLPIALRSHLKSFSMANGLNARMMHGGSYSLTTSSTHKRSSLRKVKLVRPPQSPPKNCTRNSCKIS

Variants of: B1
Assay: glutathione bead pulldown, quantified immunoblot; three independent experiments; parent: 1; read off a plot

response [Arbitrary Units]	Variant
~0.57	chain 1 YCVQDATVVDVEKRRNPSKHAVYIINVTWSDSTSQTIYRRYSKFFDLQMQLLDKFPIEGGQKDPKQRIIPFLPGKILFRRSHIRDVAVKRLKPIDEYCRALVRLPPHISQCDEVFRFFEARPEDV
~0.86	chain 1 YCVQDATVVDVEKRRNPSKHYVYAINVTWSDSTSQTIYRRYSKFFDLQMQLLDKFPIEGGQKDPKQRIIPFLPGKILFRRSHIRDVAVKRLKPIDEYCRALVRLPPHISQCDEVFRFFEARPEDV
